According to patent US20180155451A1 (published 2018):

B1: H240-G1d/L73-k0 (antibody, human IgG1, kappa)
heavy: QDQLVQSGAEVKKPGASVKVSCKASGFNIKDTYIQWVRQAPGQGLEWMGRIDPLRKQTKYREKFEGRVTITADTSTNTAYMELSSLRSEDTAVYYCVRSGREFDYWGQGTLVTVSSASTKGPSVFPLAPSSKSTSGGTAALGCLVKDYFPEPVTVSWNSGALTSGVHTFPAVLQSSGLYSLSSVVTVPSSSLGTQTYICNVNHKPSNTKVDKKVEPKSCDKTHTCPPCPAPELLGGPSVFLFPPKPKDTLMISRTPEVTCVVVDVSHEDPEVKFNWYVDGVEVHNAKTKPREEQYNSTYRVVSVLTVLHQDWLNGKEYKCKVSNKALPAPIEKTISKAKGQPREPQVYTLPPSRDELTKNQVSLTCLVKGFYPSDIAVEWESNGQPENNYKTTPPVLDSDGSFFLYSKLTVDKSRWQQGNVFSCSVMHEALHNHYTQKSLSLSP
light: DIQMTQSPSSLSASVGDRVTITCRASQDIHKYIAWYQQKPGQAPRLLIQYTSTLQPGVPSRFSGSGSGTDYTFTISSLQPEDIATYYCLQYEQLRTFGGGTKVEIKRTVAAPSVFIFPPSDEQLKSGTASVVCLLNNFYPREAKVQWKVDNALQSGNSQESVTEQDSKDSTYSLSSTLTLSKADYEKHKVYACEVTHQGLSSPVTKSFNRGEC
notes: Anti-epiregulin (EREG) IgG1; also called native IgG1 (anti-epiregulin)
B2: H240-Kn033/H240-Hl033/L73-k0 (antibody, human IgG1, kappa)
heavy 1: not shown
heavy 2: not shown
light: DIQMTQSPSSLSASVGDRVTITCRASQDIHKYIAWYQQKPGQAPRLLIQYTSTLQPGVPSRFSGSGSGTDYTFTISSLQPEDIATYYCLQYEQLRTFGGGTKVEIKRTVAAPSVFIFPPSDEQLKSGTASVVCLLNNFYPREAKVQWKVDNALQSGNSQESVTEQDSKDSTYSLSSTLTLSKADYEKHKVYACEVTHQGLSSPVTKSFNRGEC
notes: Knobs-into-holes only (control)
B3: heterodimerized antibody GpH7-A5/GpH7-B3 variant L328_13S/GpL16-k0 (antibody, human IgG1, kappa)
heavy 1: not shown
heavy 2: not shown
light: DIVMTQSPLSLPVTPGEPASISCQASESLVHSNRNTYLHWYLQKPGQSPQLLIYKVSNRFSGVPDRFSGSGSGTDFTLKISRVEAEDVGVYYCSQNTHVPPTFGQGTKVEIERTVAAPSVFIFPPSDEQLKSGTASVVCLLNNFYPREAKVQWKVDNALQSGNSQESVTEQDSKDSTYSLSSTLTLSKADYEKHKVYACEVTHQGLSSPVTKSFNRGEC
notes: Anti-glypican-3 IgG1 with the alteration in only one H chain (the GpH7-B3 chain); also called He Ab
B4: heterodimerized antibody GpH7-A5/GpH7-B3 variant L328_20W/GpL16-k0 (antibody, human IgG1, kappa)
heavy 1: not shown
heavy 2: not shown
light: DIVMTQSPLSLPVTPGEPASISCQASESLVHSNRNTYLHWYLQKPGQSPQLLIYKVSNRFSGVPDRFSGSGSGTDFTLKISRVEAEDVGVYYCSQNTHVPPTFGQGTKVEIERTVAAPSVFIFPPSDEQLKSGTASVVCLLNNFYPREAKVQWKVDNALQSGNSQESVTEQDSKDSTYSLSSTLTLSKADYEKHKVYACEVTHQGLSSPVTKSFNRGEC
notes: as for B3
B5: heterodimerized antibody GpH7-A5/GpH7-B3 variant I332_11K/GpL16-k0 (antibody, human IgG1, kappa)
heavy 1: not shown
heavy 2: not shown
light: DIVMTQSPLSLPVTPGEPASISCQASESLVHSNRNTYLHWYLQKPGQSPQLLIYKVSNRFSGVPDRFSGSGSGTDFTLKISRVEAEDVGVYYCSQNTHVPPTFGQGTKVEIERTVAAPSVFIFPPSDEQLKSGTASVVCLLNNFYPREAKVQWKVDNALQSGNSQESVTEQDSKDSTYSLSSTLTLSKADYEKHKVYACEVTHQGLSSPVTKSFNRGEC
notes: as for B3
B6: heterodimerized antibody GpH7-A5/GpH7-B3 variant L328_18N/GpL16-k0 (antibody, human IgG1, kappa)
heavy 1: not shown
heavy 2: not shown
light: DIVMTQSPLSLPVTPGEPASISCQASESLVHSNRNTYLHWYLQKPGQSPQLLIYKVSNRFSGVPDRFSGSGSGTDFTLKISRVEAEDVGVYYCSQNTHVPPTFGQGTKVEIERTVAAPSVFIFPPSDEQLKSGTASVVCLLNNFYPREAKVQWKVDNALQSGNSQESVTEQDSKDSTYSLSSTLTLSKADYEKHKVYACEVTHQGLSSPVTKSFNRGEC
notes: as for B3
B7: heterodimerized antibody GpH7-A5/GpH7-B3 variant L328_15Y/GpL16-k0 (antibody, human IgG1, kappa)
heavy 1: not shown
heavy 2: not shown
light: DIVMTQSPLSLPVTPGEPASISCQASESLVHSNRNTYLHWYLQKPGQSPQLLIYKVSNRFSGVPDRFSGSGSGTDFTLKISRVEAEDVGVYYCSQNTHVPPTFGQGTKVEIERTVAAPSVFIFPPSDEQLKSGTASVVCLLNNFYPREAKVQWKVDNALQSGNSQESVTEQDSKDSTYSLSSTLTLSKADYEKHKVYACEVTHQGLSSPVTKSFNRGEC
notes: as for B3

How the values were obtained:
[1] = biological target: T1, FcgRIa extracellular domain with C-terminal His tag (human, UniProt P12314 16-292); experiment: SPR (Biacore), antibody captured on chip, FcγR extracellular domain as analyte, kinetic analysis
T1 construct: extracellular domain; Expressed in FreeStyle293 cells; used as analyte in Biacore; also called FcγRIa; FcγRI; not shown: His tag attached to the C terminus
Protocol: (§1) Analysis of interaction between obj ective antibody and the FcγR was carried out using Biacore T100 (GE Healthcare), Biacore T200, Biacore A100, and Biacore 4000. HBS-EP+ (GE Healthcare) was used as the running buffer, and the measurement temperature was set to 25° C. Chips produced by immobilizing the antigen peptide by the amine coupling method to a Series S sensor Chip CM5 (GE Healthcare), chips produced by allowing preliminarily biotinylated antigen peptides to interact with and immobilize onto a Series S Sensor Chip SA (certified) (GE Healthcare), chips produced by immobilizing Protein L (ACTIGEN, BioVision) to Series S Sencor Chip CM5 (GE Healthcare), or chips produced by immobilizing Protein A/G (Thermo Scientific) to Series S Sencor Chip CM5 (GE Healthcare) were used. Antibodies of interest were captured onto these chips, and allowed to interact to each FcγR diluted with running buffer. To regenerate and repeatedly use the chip, the antibodies captured onto the chip were washed off by reacting 10 mM glycine-HCl, pH 1.5.

[2] = biological target: T2, FcgRIIa H extracellular domain with C-terminal His tag (human, UniProt P12318 34-217); experiment: as above
T2 construct: extracellular domain; also called FcγRIIa H; FcγRIIa type H; not shown: His tag attached to the C terminus
T2 sequence (looked up): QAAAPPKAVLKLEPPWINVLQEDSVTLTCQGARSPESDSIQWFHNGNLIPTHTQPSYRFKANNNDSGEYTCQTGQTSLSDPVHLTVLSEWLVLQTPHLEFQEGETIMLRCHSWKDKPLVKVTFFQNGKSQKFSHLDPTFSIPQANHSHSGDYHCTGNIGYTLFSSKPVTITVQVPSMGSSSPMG
Protocol: as §1

[3] = biological target: T3, FcgRIIIa V extracellular domain with C-terminal His tag (human, UniProt P08637 17-208); experiment: as above
T3 construct: extracellular domain; also called FcγRIIIa V; FcγRIIIa (V158); not shown: His tag attached to the C terminus
Protocol: as §1

[4] = biological target: T4, FcgRIIb extracellular domain with C-terminal His tag (human, UniProt P31994 43-217); experiment: as above
T4 construct: extracellular domain; also called FcγRIIb; not shown: His tag attached to the C terminus
T4 sequence (looked up): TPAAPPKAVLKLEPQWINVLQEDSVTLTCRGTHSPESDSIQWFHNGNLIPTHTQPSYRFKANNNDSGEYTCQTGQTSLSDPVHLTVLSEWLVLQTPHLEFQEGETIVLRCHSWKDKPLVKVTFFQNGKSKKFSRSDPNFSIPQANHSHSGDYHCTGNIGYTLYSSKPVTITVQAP
Protocol: as §1

[5] = biological target: T5, FcgRIIa R extracellular domain with C-terminal His tag (human, UniProt P12318 34-217); experiment: as above
T5 construct: extracellular domain; also called FcγRIIa R; FcγRIIa type R; not shown: His tag attached to the C terminus
T5 sequence (looked up): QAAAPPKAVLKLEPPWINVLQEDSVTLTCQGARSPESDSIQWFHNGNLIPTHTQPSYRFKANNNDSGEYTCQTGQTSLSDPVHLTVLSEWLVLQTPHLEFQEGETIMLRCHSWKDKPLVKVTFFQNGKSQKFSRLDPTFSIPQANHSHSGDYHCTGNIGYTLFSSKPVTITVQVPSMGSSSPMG
Protocol: as §1

[6] = biological target: T6, FcgRIIIa F extracellular domain with C-terminal His tag (human, UniProt P08637 17-208); experiment: as above
T6 construct: extracellular domain; also called FcγRIIIa F; FcγRIIIa (F158); not shown: His tag attached to the C terminus
Protocol: as §1

[7] = biological target: T7, FcγRIIa R (extracellular domain, C-terminal His tag) (human, UniProt P12318 34-217); experiment: SPR (Biacore); He/Con for FcγRIIa R divided by He/Con for FcγRIIb
T7 construct: extracellular domain; Soluble receptor used as analyte in Biacore; also called FcgRIIa R; 2aR; not shown: His tag attached to the C terminus
T7 sequence (looked up): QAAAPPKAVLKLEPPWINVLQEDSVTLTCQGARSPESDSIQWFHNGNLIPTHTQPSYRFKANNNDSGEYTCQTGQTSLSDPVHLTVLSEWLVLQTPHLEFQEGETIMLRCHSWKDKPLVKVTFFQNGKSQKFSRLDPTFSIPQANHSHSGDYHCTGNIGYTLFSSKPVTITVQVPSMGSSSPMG
Protocol: (§2) The heterodimerized antibodies He Abs in which one of the H chains was introduced with an alteration were assayed for their binding activities to each activating FcγR and inhibitory FcγR according to the method described in Example 4. […] The activating FcγRs in FIGS. 26, 27, 28, and 29 are FcγRIa, FcγRIIa (R), FcγRIIa (H), and FcγRIIIa, respectively.
(§3) Analysis of interaction between objective antibody and the FcγR was carried out using Biacore T100 (GE Healthcare). HBS-EP+ (GE Healthcare) was used as the running buffer, and the measurement temperature was set to 25° C. Chips produced by immobilizing the antigen peptide by the amine coupling method to a Series S Sencor Chip CM5 (GE Healthcare), or alternatively, chips produced by allowing preliminarily biotinylated antigen peptides to interact with and immobilize onto a Series S Sensor Chip SA (certified) (GE Healthcare) were used. Antibodies of interest were captured onto an antigen peptide-immobilized chip, and allowed to interact to each FcγR diluted with running buffer. To regenerate and repeatedly use the chip, the antibodies captured on the chip were washed off by reacting 10 mM glycine-HCl, pH 1.5.

[8] = biological target: T7, FcγRIIa R (extracellular domain, …); experiment: SPR (Biacore T100), antibody captured on antigen peptide chip, FcγR as analyte; relative binding amount
Protocol: as §2, §3

[9] = biological target: T8, FcγRIIb (extracellular domain, C-terminal His tag) (human, UniProt P31994 43-217); experiment: as above
T8 construct: extracellular domain; Soluble receptor used as analyte in Biacore; also called FcgRIIb; 2b; not shown: His tag attached to the C terminus
T8 sequence (looked up): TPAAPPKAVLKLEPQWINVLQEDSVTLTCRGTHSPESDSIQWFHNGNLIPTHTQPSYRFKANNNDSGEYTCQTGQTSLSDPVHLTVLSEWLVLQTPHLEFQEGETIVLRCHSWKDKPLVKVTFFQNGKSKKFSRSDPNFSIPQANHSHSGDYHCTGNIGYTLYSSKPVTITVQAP
Protocol: as §2, §3

T3 sequence (P08637 17-208 F176V): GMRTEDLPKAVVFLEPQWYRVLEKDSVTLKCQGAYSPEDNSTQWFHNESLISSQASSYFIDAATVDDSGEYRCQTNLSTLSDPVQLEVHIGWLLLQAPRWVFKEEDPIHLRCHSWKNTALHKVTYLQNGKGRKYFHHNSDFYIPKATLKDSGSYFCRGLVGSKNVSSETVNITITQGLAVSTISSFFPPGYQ
T1 sequence (P12314 16-292): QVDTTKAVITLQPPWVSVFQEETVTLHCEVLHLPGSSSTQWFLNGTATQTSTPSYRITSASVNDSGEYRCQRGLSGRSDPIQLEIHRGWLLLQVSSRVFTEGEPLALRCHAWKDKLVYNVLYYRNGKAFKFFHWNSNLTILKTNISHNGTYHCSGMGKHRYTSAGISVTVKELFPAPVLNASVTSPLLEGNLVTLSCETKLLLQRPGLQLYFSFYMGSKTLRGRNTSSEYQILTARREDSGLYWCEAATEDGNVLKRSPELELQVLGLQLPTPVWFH
T6 sequence (P08637 17-208): as the sequence (P08637 17-208 F176V) above, with V160F counted along it

Binder	Kd [1] [nM]	Kd [2] [nM]	Kd [3] [nM]	Kd [4] [nM]	Kd [5] [nM]	Kd [6] [nM]	He_2aR/2b (IIaR/IIb) [7] [ratio]	He/Con_2aR (IIaR binding) [8]	He/Con_2b (IIb binding) [9]
B1	0.23	660	310	6000	880	1400	–	–	–
B2	0.25	930	390	4100	1000	2600	–	–	–
B3	–	–	–	–	–	–	0.78	117 % of control (GpH7-A5/GpH7-B3/GpL16-k0 = 100)	149 % of control (GpH7-A5/GpH7-B3/GpL16-k0 = 100)
B4	–	–	–	–	–	–	0.66	155 % of control (GpH7-A5/GpH7-B3/GpL16-k0 = 100)	235 % of control (GpH7-A5/GpH7-B3/GpL16-k0 = 100)
B5	–	–	–	–	–	–	0.61	43.1 % of control (GpH7-A5/GpH7-B3/GpL16-k0 = 100)	70.9 % of control (GpH7-A5/GpH7-B3/GpL16-k0 = 100)
B6	–	–	–	–	–	–	0.73	59.4 % of control (GpH7-A5/GpH7-B3/GpL16-k0 = 100)	80.8 % of control (GpH7-A5/GpH7-B3/GpL16-k0 = 100)
B7	–	–	–	–	–	–	0.7	136 % of control (GpH7-A5/GpH7-B3/GpL16-k0 = 100)	193 % of control (GpH7-A5/GpH7-B3/GpL16-k0 = 100)
